Assay results reported in publication PMC12397275 (Nature Communications, 2025).

Target: T1, 670-689 VP3 peptide (rhesus rotavirus RRV strain)
T1 construct: source: synthetic peptide (Gencript)
Test: BLI
Settings: both partners purified

B1: PFDN3 protein (His tag removed) (natural protein)
chain: MAAVKDSCGKGEMATGNGRRLHLGIPEAVFVEDVDSFMKQPGNETADTVLKKLDEQYQKYKFMELNLAQKKRRLKGQIPEIKQTLEILKYMQKKKESTNSMETRFLLADNLYCKASVPPTDKVCLWLGANVMLEYDIDEAQALLEKNLSTATKNLDSLEEDLDFLRDQFTTTEVNMARVYNWDVKRRNKDDSTKNKA
notes: also called non-Tagged PFDN3; human PFDN3; source: bought: Abcam (ab139201), His tag cleaved with thrombin
B1: binds.
